Molecular target: the molecule itself
Experiment: SEC

B1: Mycobacterium tuberculosis pyruvate carboxylase (MtPC), full-length (enzyme)
chain: MFSKVLVANRGEIAIRAFRAAYELGVGTVAVYPYEDRNSQHRLKADESYQIGDIGHPVHAYLSVDEIVATARRAGADAIYPGYGFLSENPDLAAACAAAGISFVGPSAEVLELAGNKSRAIAAAREAGLPVLMSSAPSASVDELLSVAAGMPFPLFVKAVAGGGGRGMRRVGDIAALPEAIEAASREAESAFGDPTVYLEQAVINPRHIEVQILADNLGDVIHLYERDCSVQRRHQKVIELAPAPHLDAELRYKMCVDAVAFARHIGYSCAGTVEFLLDERGEYVFIEMNPRVQVEHTVTEEITDVDLVASQLRIAAGETLEQLGLRQEDIAPHGAALQCRITTEDPANGFRPDTGRISALRTAGGAGVRLDGSTNLGAEISPYFDSMLVKLTCRGRDLPTAVSRARRAIAEFRIRGVSTNIPFLQAVLDDPDFRAGRVTTSFIDERPQLLTARASADRGTKILNFLADVTVNNPYGSRPSTIYPDDKLPDLDLRAAPPAGSKQRLVKLGPEGFARWLRESAAVGVTDTTFRDAHQSLLATRVRTSGLSRVAPYLARTMPQLLSVECWGGATYDVALRFLKEDPWERLATLRAAMPNICLQMLLRGRNTVGYTPYPEIVTSAFVQEATATGIDIFRIFDALNNIESMRPAIDAVRETGSAIAEVAMCYTGDLTDPGEQLYTLDYYLKLAEQIVDAGAHVLAIKDMAGLLRPPAAQRLVSALRSRFDLPVHLHTHDTPGGQLASYVAAWHAGADAVDGAAAPLAGTTSQPALSSIVAAAAHTEYDTGLSLSAVCALEPYWEALRKVYAPFESGLPGPTGRVYHHEIPGGQLSNLRQQAIALGLGDRFEEIEEAYAGADRVLGRLVKVTPTSKVVGDLALALVGAGVSADEFASDPARFGIPESVLGFLRGELGDPPGGWPEPLRTAALAGRGAARPTAQLAADDEIALSSVGAKRQATLNRLLFPSPTKEFNEHREAYGDTSQLSANQFFYGLRQGEEHRVKLERGVELLIGLEAISEPDERGMRTVMCILNGQLRPVLVRDRSIASAVPAAEKADRGNPGHIAAPFAGVVTVGVCVGERVGAGQTIATIEAMKMEAPITAPVAGTVERVAVSDTAQVEGGDLLVVVS
stoichiometry N: 4

Reference: paper doi:10.1101/2025.11.11.687647 (bioRxiv, 2025)
